Test results taken from the DeepSol protein solubility set.

experiment: soluble on expression in E. coli; label from the status in PepcDB or PDB records

With “MGRKEEDDCSSWKKQTTNIRKTFIFMEVLGSGAFSEVFLVKQRLTGKLFALKCIKKSPAFRDSSLENEIAVLKKIKHENIVTLEDIYESTTHYYLVMQLVSGGELFDRILERGVYTEKDASLVIQQVLSAVKYLHENGIVHRDLKPENLLYLTPEENSKIMITDFGLSKMEQNGIMSTACGTPGYVAPEVLAQKPYSKAVDCWSIGVITYILLCGYPPFYEETESKLFEKIKEGYYEFESPFWDDISESAKDFICHLLEKDPNERYTCEKALSHPWIDGNTALHRDIYPSVSLQIQKNFAKSKWRQAFNAAAVVHHMRKLHMNLHSPGVRPEVENRPPETQASETSRPSSPEITITEAPVLDHSVALPALTQLPCQHGRRPTAPGGRSLNCLVNGSLHISSSLVPMHQGSLAAGPCGCCSSCLNIGSKGKSSYCSEPTLLKKANKKQNFKSEVMVPVKASGSSHCRAGQTGVCLIM” as the sequence, how does the “soluble on expression in E. coli” value read?
The value was “soluble”.

For “MGRSRRTLPEELLLLALDPTTGTTAQPQSLDLGLAGAQLVELALAGRIAPDGDRIAVVAPRPTGDPTLDCALELLRRRGAPVRAVNWIGGPRLGLRQTYLSHLERCGMVHAVEGQMCGVLPTTRYQATDTAISREIKARLDSAIRTGVPPDPRTAALAALAHAVGLGKHLYPGNEGRSSRSRLRDLIRHDPMGGLVAHAVMDVQNGAAAQPRRSPAPAGRQAPGPGARPAPEPARGVPAQPRHGSMARAAVHLEHHHHHH”, which “soluble on expression in E. coli” value is on record?
The value was “soluble”.

With “MGRVGVLLANLGTPDDYSYWPMRRYLNEFLSDKRVIDYPAWKWQPILQGIILTKRPFSSGAAYESIWNHDKGESPLMTITKDQTAKLRAALAERYGDRVMVDFCMRYGNPSTKSKVRQMVTEGCDRILFFPLYPQYAGATTATANDQFFRALMDETWQPAARTVPAYFDQPAYVDALAQSIERAYAAMDSRPDVLVCSYHGMPERYLMQGD” as the sequence, how does the “soluble on expression in E. coli” value read?
Its value is “not soluble”.

Which “soluble on expression in E. coli” value does the source give for “MGSDAFDEMDEIWALYADDGAQALDAMEASLLALQAGEDAAAHVGPLFRAVHTFKGNSRVLGLSVVESRAHLCEDLIGLVRDAGVPMDGEIVEILLFASDTLRAMLEETAASRADVEGTGSEALMDQLRSKIARCSRSHHHHHH” here?
Its value is “soluble”.

Which “soluble on expression in E. coli” value does the source give for “MGSDKIHHHHHHACDDDEATDPYDINYVYIYKPSETNATLEYKGDGTFLKEIATEHILSPVRCTKPAPQDLTIQLAIDRSLVDAYNSEYGTSYVALQNAELENATLYIKQGEYISVDTLKVHYTNMEEFKNGSENYILPIAITSINGTGVSASESNSKIFLTFESTYKPNHVTLTSSKEYLLEYQYSQGFTNLSSEWKLDGILKSAWAADGDTKVTLAINPALVGTYNALHGTDYSLLTSASLKQSTIMIKQGKTTPEESVALSFSDDMASVQLGTNYVIPVTITNVDGVGADIGENKVIYIVYKTALVGFLSCVDKPVGSVINDHSGWSFTLNGQSSDLYDYVPDGSILDIDLGKQENIKTIALHFYEWFYSSESASIAISNDGEKYEDLGVASGFANKTSYILLLVAKQAQYIRVTFHGALYYSPYINTVGIYTETE” here?
The value was “not soluble”.

Which “soluble on expression in E. coli” value does the source give for “MGSDKIHHHHHHACDNSDRIETETQANGVLLNFNASTIDATTTETRSFVPIEGFAKNEYIFGMSVTKDNASRGEIFEGSRNLKATMSRPSGDAPWNWEFSNNASGTVVTPRGPEGKPLRVIAYYPAIAGTENFTDGIPFDFTQTNNPQQKEILYNTNTSYTIPSSGGSDKVTIPLKFQHAYSWISIKVTKSVDKGSHKLSGVSIDNLSGGWIKNKGKINPATGMAMQGAIQGPIGEVRTAEVLDPSGDTATPIIYDFLVPAFMDRNVKDDDLVFTLIIDGKKEIFSLGREHLNNDGDTYGFKQGYVNTYNVEFNNSSLNMRLLNWTSTRIDGDFGQNVTNPTNYQEMSFYYAEDNGGWTTANGKVFPPKYKDLPAGDRRYYNYLTTVKYGGNGEYVPAKPVTDPPPPKGIIIEDDANVATQEPACRLFQMTTKDVSIEPVPWEDEMGQLVAKELCRKYNGGGFKDWRLPRASELRALLVYAIYGAGTKQFINLKLTNDVNREKLYWTGTEESEDKAWAMLYYDDNTLVGRGPNISAQDKSTRLSVRCIRQLQ” here?
Its value is “not soluble”.

Which “soluble on expression in E. coli” value does the source give for “MGSDKIHHHHHHADLQSNFLKMLVTQMNNQDPLNPMDNAQLTSQLAQISTVSSMQTMNSTLTQLLNQTSASRAMDSAALIGRTVMVPGSQFSVKDGVAGQFGVDLPSTADAVTVNVLDAHGNVVRTIDMKGQTAGVHDIAWDGKNDAGVAVADGDYSFKVSATANGTSVQPVALVYGKVNSISGDSSGVLVDVGNGQQANVDDVRRIL” here?
Its value is “not soluble”.

For “MGSDKIHHHHHHAEAGVFSDVPTSHWSYPAIKDLAGKNIISGYGNGKFGFGDVATREQVAALIYRALLPNKQGGTFSNDGARYVLQDGSTLNNPYRDIRSGSTLFPEEVLTLTKLGVFNGDGNGGFRPKDSVSRAEMAQIIKNAFQVSAKQKHTFNDVPDGFWAEGAISAVQSNGIASGTGDGKFEPAKTVTREQYAQFLYNALQYKKPAVAVQDTGDAALLAAFKDEVQKRINAYETNITLPYKTTNSNTKEVMNTLFNAYKEVASKNEYTNNNRSNVSYGLSGSPGNYTFTLKITYRETKEQTEYVMKQAKAIVSSITQVGMDDHEKVKAIHDYVVKHVSYDTSYKAYTAYEALVNRSAVCQGYALLTYQLLKEAGIENHFVVGTGDGQPHAWNLVKIENKWYHLDTTFDDPVPDEQGRVTYSYFNLSDEQIARNHEWNRGDYPQATTNYYSTLTNKIAAGGTKTSAYQQILKDTKLNYLGNEYIANNYNEFKNKMQQRYNEKSPKIEILYKQSMDGALQDVKKAIGEIGYPQGANRVSYKAEPYNAKEGYSLVTITFM”, which “soluble on expression in E. coli” value is on record?
The value was “not soluble”.

For “MGSDKIHHHHHHAGSCTGNFEEYNTNQFQIHEADPSTLMKSMIETIVNIQQNDSQMMDQMVGQLGGYLTCANVWSGTNFGTFNQSDAWNAGPWNTNFEKIYGNFFQIQEATNESGHYYAFARMIRAITMLRVADCYGPMPYSQVKKGNFYVAYDTEEQVYKNIMEDFASAANVLYNYYKDTNGNAPLASNDPVFSGNYANWARLANSMRLRVAIRISTAYPEMAKENAEAAASHEAGLIEANNDNAMMDCGSQTNPYQLAAVSWGDLRVNANIVDYMNGYGDPRMSKYFNHSTFTGHTQEYVGMRSGEDGFAKSDVAGYSIPAITGTSKLLVFCAAETAFLRAEGKLKNWSVGNKSAKEYYEEGIKLSMEQYGTTMPDNYLTNTEKPTVSHNNDPRGHAYTISNTVAVAWNDNNEEENLQRIITQKWIANYPLGLEAWAEYRRTGYPELYPCIDNLSPSGVDSKRGMRRLRFPYTEVQNNHSNYQQGVSYLKNGGPDNEATDLSWGKTN”, which “soluble on expression in E. coli” value is on record?
The value was “not soluble”.

For “MGSDKIHHHHHHAHTRAIDNIANSGDMVTMSGTVKLYAKTAQDGGVVNTLTLQVSDFTGLDTGTGSKTVEISGAATYIEVEGNIDGSATKTDDVNSRQGGVTSDAVRVVGGAAIVTGGSTSTCSIEVAPEMARVEVKGDLGSSFTNLAELKVKGIYLNNVKQKRADAAVVKTTKASAPDWTTAYTAGGTKSNLYNTFIGTPITKFDSGKADGYNFFPQDFHIASLSAAATTKEEAAKYHPHVIMEVEYKMNGVGALSKTGWLNVVALKDNTSSSYIGEFANGKVYQLDLADIKKIMDVPVPPVTVDPDPDAVNVDVTVTVKGWELVFIKPEV”, which “soluble on expression in E. coli” value is on record?
The value was “not soluble”.

With “MGSDKIHHHHHHAKSVATTEHLKRYTEAISHDSCQGRKPFSEGADRAVNYIAHQMKEVGLKPINGDSYFQQVNIISSRTRCPDPMVLKTPKGKIPLDWLEGYTAFSARIEPEIDIDNAELVFAGYGIVAPEYGKNDFEGIENPQDKVAVVIVNDPGLGSDNTDYFNGDIMTYYGRWMYKFEEGARQGLKGVLIIHEDRGAGYPWSVVRASAQSKMYVDSDSDAYHCPLNGWIQFNAAKQLLADNGYDIDQLIEQSKSPDFKPISLKSTVTVSMRNTFDRQQSPNVIGYIPGSGNTDESVIYLGHWDHLGYGAPINGDSIINGATDNAVAIAWMLEMARCFNVLKEKPRRNIVFLSPTCEETGFLGTKYYVEHPLFPIDKIAAVINLDVFPLWGENNDVTITGYGNSELDDTLAELAKKYNRYIMPDPDAYNGMFYRSDHFPFVQKGIPAMFAKGWNDNRKQGKEWAKEHIAHYWAETYHKPTDQTHPDTDDYSGLLQEVQLFFDLGYKLAQDTGYPKWKPKSEFANVLKR” as the sequence, how does the “soluble on expression in E. coli” value read?
The value was “not soluble”.
